US20100203044A1, “DR6 ANTAGONISTS AND USES THEREOF IN TREATING NEUROLOGICAL DISORDERS” (priority 2006, published 2010)
“Also recorded” adds a separate entry of the source.

How the values were obtained:
[1] = molecular target: T1, APP (Homo sapiens, UniProt P05067); assay: cell-based AP binding assay, APP expressing COS-1 cells; conditions: DR6-AP conditioned medium 1:1 with binding buffer, 90 minutes
T1 construct: expressed in transfected cells; host or cells: COS-1
Description: The materials and methods used to generate the data shown in this figure are as follows. To test whether APP directly interacts with DR6 extracellular domain, a cell-based AP binding assay was carried out (FIG. 14B). To generate DR6 ectodomain-AP fusion protein (DR6-AP), COS-1 cells cultured in DMEM/10% FBS (Gibco) medium were transfected with 15 microgram of DR6-AP fusion expression construct using FuGene transfection reagent (Roche) according to the manufacturer protocol. Twelve hours post-transfection, COS-1 cell medium was changed to OPTI-MEM (Invitrogen). Forty-eight hours post-transfection, COS-1 cell conditioned medium containing DR6-AP proteins was collected and filtered.
The amount of DR6-AP proteins in the medium was quantified according to the following procedure. 100 microliters of 2×AP buffer (prepared by adding 100 mg Para-nitrophenyl phosphate (Sigma) and 15 microliter of 1M MgCl2 to 15 ml 2M diethanolamine pH 9.8) was mixed with equal volume of transfected COS cell conditioned medium or control conditioned medium from untransfected COS-1 cells. […] The volume of reaction was then adjusted by adding 800 microliters of distilled water and the O.D. was measured at 405 nm absorbance wavelength. The concentration in nM was calculated according to the formula (for 100 microliter): C (nM)=O.D.×100×(60/developing time)/30. […]

[2] = molecular target: T2, p75NTR (Homo sapiens, UniProt P08138); assay: cell-based AP binding assay, p75NTR expressing COS-1 cells; conditions: same conditions as APP binding
T2 construct: expressed in transfected cells; host or cells: COS-1
T2 sequence (P08138 29-427): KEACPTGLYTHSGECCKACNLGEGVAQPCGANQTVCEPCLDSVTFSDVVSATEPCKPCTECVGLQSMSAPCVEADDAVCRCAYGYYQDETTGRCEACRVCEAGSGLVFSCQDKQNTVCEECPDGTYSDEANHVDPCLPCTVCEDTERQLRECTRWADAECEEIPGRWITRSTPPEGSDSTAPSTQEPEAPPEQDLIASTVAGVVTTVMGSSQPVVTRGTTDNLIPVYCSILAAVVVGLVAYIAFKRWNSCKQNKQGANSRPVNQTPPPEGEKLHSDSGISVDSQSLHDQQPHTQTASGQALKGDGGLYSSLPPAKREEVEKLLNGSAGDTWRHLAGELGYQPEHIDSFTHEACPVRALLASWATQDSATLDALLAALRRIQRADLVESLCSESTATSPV
Description: (§1) For the APP AP binding assay, COS-1 cells cultured in DMEM/10% FBS (Gibco) medium in 6-well culture dishes were transfected with 2 microgram of APP expressing vector per well using FuGene transfection reagent (Roche) according to the manufacturer protocol. Two days post-transfection, cells were washed twice with the binding buffer (HBSS, Gibco Cat. No. 14175-095, with 0.2% BSA, 0.1% NaN3, 5 mM CaCl2, 1 mM MgCl2, 20 mM HEPES, pH=7.0). An AP binding assay was then carried out by making a 1:1 mixture of DR6-AP conditioned medium and the binding buffer, which was applied directly to APP over-expressing COS-1 cells and incubated for 90 minutes at room temperature. Following the incubation, the unbound DR6-AP proteins were washed away by rinsing COS-1 cells five times with the binding buffer. Cells were then fixed with 3.7% formaldehyde diluted in PBS, for 12 minutes at room temperature. The remaining formaldehyde was removed by rinsing cells 3 times with HBS buffer (20 mM HEPES pH=7.0, 150 mM NaCl). Endogenous AP activity was blocked by heat inactivation at 65° C. in HBS buffer for 30 minutes. COS-1 cells were then rinsed three times in the AP reaction buffer (100 mM TRIS pH=9.5, 100 mM NaCl, 50 mM MgCl2). […]

[3] = molecular target: T3, DR6 receptor (Homo sapiens, UniProt O75509); assay: cell-based AP binding assay, DR6 receptor expressing COS-1 cells; conditions: same conditions as APP binding
T3 construct: expressed in transfected cells; host or cells: COS-1
T3 sequence (O75509 42-655): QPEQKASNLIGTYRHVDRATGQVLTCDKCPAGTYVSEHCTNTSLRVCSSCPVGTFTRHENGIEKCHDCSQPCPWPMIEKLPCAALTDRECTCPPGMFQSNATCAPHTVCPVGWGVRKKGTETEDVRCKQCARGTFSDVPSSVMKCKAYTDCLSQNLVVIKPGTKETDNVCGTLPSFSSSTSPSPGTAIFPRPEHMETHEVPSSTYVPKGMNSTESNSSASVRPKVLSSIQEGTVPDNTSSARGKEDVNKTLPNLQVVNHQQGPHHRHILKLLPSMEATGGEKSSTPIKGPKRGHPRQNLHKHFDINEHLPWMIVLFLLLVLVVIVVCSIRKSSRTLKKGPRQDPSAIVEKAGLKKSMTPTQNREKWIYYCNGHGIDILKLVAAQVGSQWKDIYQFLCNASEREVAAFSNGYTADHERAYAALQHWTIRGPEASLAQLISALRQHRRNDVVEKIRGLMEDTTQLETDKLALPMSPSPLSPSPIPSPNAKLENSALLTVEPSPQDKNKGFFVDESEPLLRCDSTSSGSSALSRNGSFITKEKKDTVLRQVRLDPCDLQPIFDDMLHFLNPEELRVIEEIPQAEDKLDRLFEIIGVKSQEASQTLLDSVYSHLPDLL
Description: as §1

T1 sequence (P05067 18-770): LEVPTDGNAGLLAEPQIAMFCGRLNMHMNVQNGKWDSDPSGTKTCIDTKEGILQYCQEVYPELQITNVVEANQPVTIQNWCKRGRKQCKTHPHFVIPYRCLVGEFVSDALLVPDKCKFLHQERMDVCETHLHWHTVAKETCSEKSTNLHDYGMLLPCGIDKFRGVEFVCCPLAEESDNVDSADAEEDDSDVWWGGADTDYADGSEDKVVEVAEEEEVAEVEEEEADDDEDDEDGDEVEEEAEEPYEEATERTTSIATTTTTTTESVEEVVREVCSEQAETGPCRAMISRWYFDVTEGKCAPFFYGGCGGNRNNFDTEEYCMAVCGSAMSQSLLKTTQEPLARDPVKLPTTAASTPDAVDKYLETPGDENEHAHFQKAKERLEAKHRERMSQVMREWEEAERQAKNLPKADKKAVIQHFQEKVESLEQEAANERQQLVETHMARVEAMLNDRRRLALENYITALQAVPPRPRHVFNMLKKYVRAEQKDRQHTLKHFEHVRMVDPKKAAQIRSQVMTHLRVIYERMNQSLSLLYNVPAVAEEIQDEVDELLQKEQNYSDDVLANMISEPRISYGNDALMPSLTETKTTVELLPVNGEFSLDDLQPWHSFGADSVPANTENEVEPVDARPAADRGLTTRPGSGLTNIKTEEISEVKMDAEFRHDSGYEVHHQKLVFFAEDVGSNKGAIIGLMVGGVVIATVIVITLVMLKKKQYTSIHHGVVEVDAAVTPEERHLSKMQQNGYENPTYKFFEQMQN

B1: DR6-AP: mouse DR6 ectodomain fused to human placental alkaline phosphatase (protein)
chain: QPEQKTLSLPGTYRHVDRTTGQVLTCDKCPAGTYVSEHCTNMSLRVCSSCPAGTFTRHENGIERCHDCSQPCPWPMIERLPCAALTDRECICPPGMYQSNGTCAPHTVCPVGWGVRKKGTENEDVRCKQCARGTFSDVPSSVMKCKAHTDCLGQNLEVVKPGTKETDNVCGMRLFFSSTNPPSSGTVTFSHPEHMESHDVPSSTYEPQGMNSTDSNSTASVRTKVPSGIEEGTVPDNTSSTSGKEGTNRTLPNPPQVTHQQAPHHRHILKLLPSSMEATGEKSSTAIKAPKRGHPRQNAHKHFDINEHIIPVEEENPDFWNREAAEALGAAKKLQPAQTAAKNLIIFLGDGMGVSTVTAARILKGQKKDKLGPEIPLAMDRFPYVALSKTYNVDKHVPDSGATATAYLCGVKGNFQTIGLSAAARFNQCNTTRGNEVISVMNRAKKAGKSVGVVTTTRVQHASPAGTYAHTVNRNWYSDADVPASARQEGCQDIATQLISNMDIDVILGGGRKYMFRMGTPDPEYPDDYSQGGTRLDGKNLVQEWLAKRQGARYVWNRTELMQASLDPSVTHLMGLFEPGDMKYEIHRDSTLDPSLMEMTEAALRLLSRNPRGFFLFVEGGRIDHGHHESRAYRALTETIMFDDAIERAGQLTSEEDTLSLVTADHSHVFSFGGYPLRGSSIFGLAPGKARDRKAYTVLLYGNGPGYVLKDGARPDVTESESGSPEYRQQSAVPLDEETHAGEDVAVFARGPQAHLVHGVQEQTFIAHVMAFAACLEPYTACDLAPPAGTTDAAHPG
binding of DR6 ectodomain to APP expressing cells [1]: binds APP expressed by cultured cells
binding of DR6 ectodomain to p75NTR expressing cells [2]: does NOT bind; also recorded: no specific binding
binding of DR6 ectodomain to DR6 receptor expressing cells [3]: does NOT bind; also recorded: no specific binding
